For the assay, the target named is FITC-labelled H3.1 peptide (residues 16-34) trimethylated at K27 (UniProt P68431). Nature of the assay: fluorescence polarisation; fluorescence anisotropy; 50 nM FITC-labelled H3.1 (16-34) peptide in 20 mM HEPES pH 7.5, 100 mM KCl, 0.1 mM DTT, 10% glycerol; DDX19A added stepwise; 23°C; fit to a simple binding equilibrium.

The values below come from PMC8096265, “A functional LSD1 coregulator screen reveals a novel transcriptional regulatory cascade connecting R-loop homeostasis with epigenetic regulation” (Nucleic Acids Research, 2021).

B1: GST-DDX19A (recombinant full-length DEAD-box helicase 19A) (enzyme)
chain: MATDSWALAVDEQEAAVKSMTNLQIKEEKVKADTNGIIKTSTTAEKTDEEEKEDRAAQSLLNKLIRSNLVDNTNQVEVLQRDPNSPLYSVKSFEELRLKPQLLQGVYAMGFNRPSKIQENALPMMLAEPPQNLIAQSQSGTGKTAAFVLAMLSRVEPSDRYPQCLCLSPTYELALQTGKVIEQMGKFYPELKLAYAVRGNKLERGQKISEQIVIGTPGTVLDWCSKLKFIDPKKIKVFVLDEADVMIATQGHQDQSIRIQRMLPRNCQMLLFSATFEDSVWKFAQKVVPDPNVIKLKREEETLDTIKQYYVLCSSRDEKFQALCNLYGAITIAQAMIFCHTRKTASWLAAELSKEGHQVALLSGEMMVEQRAAVIERFREGKEKVLVTTNVCARGIDVEQVSVVINFDLPVDKDGNPDNETYLHRIGRTGRFGKRGLAVNMVDSKHSMNILNRIQEHFNKKIERLDTDDLDEIEKIAN
As a reminder, the Kd is a measure of binding affinity in units of concentration. B1 came in with a Kd of 82 nM.
